Assay: yeast display, Sf9 membrane polyspecificity reagent, FACS + sequencing; frameworks hold sequencing errors
How it was run: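 Galactose-induced (36–48 hours) yeast carrying a synthetic nanobody display library were exposed to 10% biotinylated, detergent-solubilized Sf9 membrane reagent at 4 °C for 1 hour. FACS followed streptavidin microbead enrichment, using low and high (top ~1%) gates for expression (anti-HA) and reagent binding (streptavidin). Colony PCR, MiSeq 2 × 250 sequencing and CDR-length filtering followed. Labels for polyreactivity reflect the gate of origin.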

Row | Sequence | polyreactivity (PSR sort gate)
1 | QVQLVESGGGLVQAGGSLRLSCAASGSTFQFYAMGWYRQAPGKERELVASITSRGGNTHYADSVKGRFTISRDNAKNTVYLQMNSLKPEDTAVYYCAARGGWYGTYDYWGQGTQVTVSS | low polyreactivity
2 | QVQLVESGGGLVQAGGSLRLSCAASGSTIYAYAMGWYRQAPGKERELVAAIDSGGSTYYADSVKGRFTISRDNAKNTVYLQMNSLKPEDTAVYYCAVRHRYTRAYWGRDYWGQGTQVTVSS | low polyreactivity
3 | QVQLVESGGGLDQAGGSLRLSCAASGRIFLVYVMGWYRQAPGKERELVAAISASDGSTYYADSVKGRFTISRDNANNTVYLQMNSLKPEDTAVDYCAEWGYSLDSNSYRELNYWGQGTQVNVSS | low polyreactivity
4 | QVQLVESGGGLVQAGGSLRLSCAASGSTFGRYAMGWSRQAPGKERELVAAITTSGRRTRYADSVKGRFTISRDNAKNTVYLQMNSLKPEDTAVYYCAASGAQGPDYDYWGQGTQVTVSS | low polyreactivity
5 | QVQLVESVGGLVQAGGSLRLSCAATGSIFSYYAMGWYRQAPGKERELVAAISVSGGRTYYADSVNGRFTISRDNAKNTVYLQMNSLKPEDTAVYYCATRIRSYYYWGQGTQVTVSS | high polyreactivity
6 | QVQLVESGGGLVQAGGSLRLSCAASGSTFKIYAMGWYRQAPGKERELVARITGRGGSTYYADSVKGRFTISRDNAKNTVYLQMNSLKPEDTAVYYCAARVYTFYYDLHKRYYWGQGTQVNVSS | high polyreactivity
7 | QVQLVESGGGIVQAGGSLRLSCAASGRTSVINAMGWYRQAPGKERELVASISRGGSTNYADSVKGRFTISRDNAKNTVYLQMNSLKPEDTAVYYCNADEQNDSFIWSYTIIYDYWGQGTQVTVSS | low polyreactivity
8 | QVQLVESGGGLVQAGGSLRLSCAASGFTFQRYAMGWYRQAPGKERELVAAISVRGTRTYYADSVKGRFTISRDNAMNTVYLQMNSLKPEDTAVYYCNADWERDVQDDYWGQGTQVTVSS | high polyreactivity
9 | QVQLVESGGGLVQAGGSLRLSCAASGNTFGYNAMGWYRQAPGKERELVAAISWRGGRTYYADSVKGRFTISRDHAKNTVYLQMNILKTEDTAVYYCAARRHSTRLRLTYDYWGQGTQVTVSW | high polyreactivity
10 | QVQLVESGGGLVQAGGSLRLSCAASGSIFDPYAMGWYRQAPGKERELVAAITASASSTYYADSVKGRFTISRDNAKNTVYLQMYSLKPEDTAVYYCAADRANWEYLLSLLGYDYWGQGTQVTVSS | low polyreactivity
11 | QVQLVESGGGLVQAGGSLRLSCAASGSIFVYNAMGWYRQATGKEREMVAVINKSGDTTYYADSVKGRFTISRDNAKNTVYLQMNSLKPEDTAVYYCNASGEVLAAVVSYDYWGQGTQVTVSS | low polyreactivity
12 | QVQLVQSGGGLVQAGGSLRLSCAASGRIFKYNAMGWYRQAPGKERDLVAVITSGGSTYYADSVKGRFTISRDNAKNTFYLQMNSQKPEDTAVYSCAKKYYKVHKFDYWGQGTQVTVSS | low polyreactivity
13 | QVQLVESGGGLVQAGGSLRLSCAASGRIFVDNTMGWYRQAPGKERELVAVITSGGSTNYADSVKGRFTISRDNAKNTVYLQMNSLKPEDTAVYYCATEPGGYRFDDRPFQYGYWGQGTQVTVSS | low polyreactivity
14 | QVQLVESGGGLVQAGGSLRLSCAASGFTFYVNAMGWYRQAPGKERELVAAISSSGTRTYYADSVKGRFTISRDKAKNTVYLQMNSLKPEDTAVYYCAARGQAYSGDRMYYWGQGTQVTVSS | high polyreactivity
15 | QVQLVESGGGLVQAGGSLRLSCAASGRIFPANVMGWYRQAPGKERELVATIDNGGGTYYADSVKGRFTISRDNAKNTVYLQMNSLKPEDTAVYYCARDRHVRWGLKMDYWGQGTQVTVSS | low polyreactivity
16 | QVQLVESGGGLVQAGGSLRFSCAASVFTFYSYAMGSDSQSPGKESEFVAAINQTSGSTTYADSVKGRFTISRDYGKNTVYLKMISLKPEDTAVYYCNAYQYYERYDTYLFRYDYWGQGTQVTVSS | low polyreactivity
17 | QVQLVESGGGLVQAGGSLRLSCAASGSIISYNTMGWYRQAPGKEREFVASIRRRGGSTYYADSVKGRFTISRDNAKNTVYLQMNSLKPEDTAGYYCAKANPHYVISDGVYHPRGGYWGHGTQVTVSS | low polyreactivity
18 | QVQLVESGGGLVQAGGSLRLSCAASGRTFRDYAMGWYRQAPGKERELVAAINWSGGTTSYADSVKGRFTISRDNAKNTVYLQMNSLKPEDTAVYYCAVPYLYKYSRYDYWGQGTQVTVSS | high polyreactivity
19 | QFQLEESVGGLVQAGGSLRLSCAASGFTFKSYAMGWYRQATVNVREFVARITYSGGGTYYADSVKGRFTISRDNAKNTVYLLMNSLKPEDTAVYYCARPFNRYLGLTRNGYTSDYWGQGTQVTVSS | high polyreactivity
20 | QVQLVESGGGLVQAGGSLRLSCAASGIIFGIYAMGWYRQAPGKEREFVAAISWSDGSTRYADSVKGRFTISRDNAKNTVYLQMNCLKPEDTAVYYCNTDIGPLDFGEYSYPDDYWGQGTQVTVSS | low polyreactivity
21 | QVQLVESGGGLVQAGGSLRLSCAASGRTFYDNAMRWYRQAPGKERELDAAITNGGRTNYADSVKGRFTISRDNAKNTVYLQMNSLKPEDTAVYYCAADFWPWYRYYSGGVDYWGQGTQVTVSS | high polyreactivity
22 | QVQLVESGGGLVQAGGSLRLSCAASGSIFGLYAMGWYRQAPGKERELVAAITWSSGNTYYADSVKGRFTISRDNAKNTVYLQMYSLKPEDTAVYYCAATSVSISYRYDYWGQGTQVTVSS | high polyreactivity

Row | Sequence | polyreactivity (PSR sort gate)
23 | QVQLVESGGGLVQAGGSLRLICAASGFIFGHNAMGWYRQAPGKERELVAAITWRGRTYYADSVKGRFTISRDNAKNCVYLQMNSMKPEDTSVFSCNAYVRYGYDYWGQGTQVTVSS | high polyreactivity
24 | QVQLVESGGGLVQAGGSLRLSCAASGGTFGQYAMGWYRLAPGKERELVAAITSSGGRTYYADSVKGRFTISRDNAKNTVYLQMNSLKPEDTAVYYCAADVQSRYVGEGDYWGQGTQVTVSS | high polyreactivity
25 | QVQLVESGGGLVQAGGSLPLSCAASGRIIDRYAMGWSRQATGKERDLVASISSGGSTYYADSVKGRFTISRDNAKNTVYLQMNSLKPEDTAVYYCNAEARSRRYRYDYWGQGTQVTVSS | high polyreactivity
26 | QVHLVESGGGLVQAAGSLRLSCAASGSTFKYNAMGWYRQAPGKERELVAAITRGGRTYYADSVKGRFTISRDNAKNTVYLQMNSLKPEDTEVYYCAAAIPSGTFYAGAYYYWGQGTQVTVSS | high polyreactivity
27 | QVQLVESGGGLVQAGGSLRLSCAASGSTLGYYSMGWYRQAPGKERELVAAIRYSDGNTYYADSVKGRFTISRDNAKNTVYLQMNSLKPEDTAVYYCAADGGYYGRDYWGQVTQVTVSS | high polyreactivity
28 | QVQLVESGGGLVQAGGSLRLSCAASGRTFKTYAMGWYRQAPGKERELVAAITRRGGSTYYADSVKGRFTISSDNAKNTVYLQMNRLKPEDTAVYYCAAGFYFLSLFSGRMDYWGQGTQVTVSS | high polyreactivity
29 | QVQLVESGGGLDQAGGSLRLSCAASGFTLDYYAMGWYRQAPGKERELVAAISWSGGRTYYADSVKGRFTISRDNAKNTVYLQMNSLKPEDTAVYYCNASPYGRKYGILADGDYWGQGTQVTVSS | high polyreactivity
30 | QVQLVESGGGLVQAGGSLRLSCAASGIIFPEYDRGWYRQAPGKERELVAAITKSDGRTYYADSVKGRFTISRDNAKNTVYLQMNSLKPEDTAVYYCNADPRVVAYLGFDSWGQGTQVTVSS | low polyreactivity
31 | QVQLVESGGGLVQAGGSLRLSCAASGSIFHYYAMGWYRQAPGKERELVAAISWSGGRTNYADSVKGRFTISRDNAKNTVYLQMKSLKPEDTAVYYCAAGNSFSDRGHRVYFQYYYWGQGTLVTVSS | high polyreactivity
32 | QVQLVESGRRLVQAGGSLRLTCAASGSTFTRYAMGWYRQAPGKERELVASISGSGGRTYYADSVKGRFTISRDNAMNTVYLQMNSLKPEDTAVYYCAAKITRRYYPGYLFDYWGQGNQVTVSS | high polyreactivity
33 | QVKLVESGGGLVQAGGSLRLSCAASGSIFYQYAMGGNRQAPGKERELVAVINRSGSSTYYADSVKGRFTISRDNAKNTVYLQMNSLKPEDTAVYYCAGASKYSEYNYWGQGTQVTVSS | high polyreactivity
34 | QVQLVESGGGLVQAGGSLRLSCAASGRTFAANTMGWYRQAPGKERELVAAINSGGSTYYADSVKGRFTISRDNAKNTVYLHMNSLKPEATAVYYCAVSWWEVPRIFGYSSRYDYWGQGTQVTVSS | high polyreactivity
35 | QVQLVESGGGLVQAGGSLRLSCAASGLTFSVYAMGWYRPAPGKERELVAAISGSGGSTYYADSVKGRFTISRDNAKNTVYLQMNSLKPEDTAVYYCAARYDVHYDGMDYWGQGTQVTLSS | low polyreactivity
36 | QVQLVESGGGLVQAGGSLRLSCAASGRTFQGYVMGWYRQAPRKERELVAAISRGTSTYYADSVKGRFTISRDNAKYTVYLQMNSLKPEDTAVYYCAADGERRHYWGQGTQVTVSS | low polyreactivity
37 | QVQLVESGGGLVQAGGSLRLSCAASGFILDYNTMGWYRQAPGKERELVAAISSSGDTTYYADSVKGRFTISRDNAKNTVYLQMNSLKPEDTAVYYCDREYGDGYEYWGQGTQVTVSS | low polyreactivity
38 | QVQLVESGGGLVQAGGSLRLSCAASGSIFRGYAMGWYRQAPGKERELVAGIRGSDGSTYYADSVKGRFTISRDNAKNTVYLQMNSLKPEDTAVYYCAADRRYLDRDKHRYGYWGQGTQVTVSS | low polyreactivity
39 | QVQLVESGAGLVQAGGSLRISCAASASIFAYYVMGRYREAPGKERELVAAITRSGSPYYADSVKGRFTISRDNAKNTVYLQMNSLKPEDTAVYYCAAPTDFLFWEFDYWGQGTQVTVSS | low polyreactivity
40 | QVQLVESGGGLVQAGGSLRLSCAASGFTFPGNAMGWYRQAPGKEREFVAAITRSSGSTSYADSVKGRFTISRDNAKNTVYLQMTSLKPEDTAVYRDYWGQGTQVTVSS | low polyreactivity
41 | QVQLVESGGGLVQAGGSLRLSCAASGFTFSTNAMGWYRQAPGKERELVAAISKSGVSTYYADSVKGRFTISRDNAKNTVYLQMNSLKTEDTAVYYCAADPKIALYKVWRYDYWGQGTQVTVSS | high polyreactivity
42 | QVQLVESGGGLVQAGGSLRLICAASGGIFNRYAMGWYRQAPGKEREFVASISRRGGSTYYADSVKGRFTISRDNAKNTVYLQMNSLKPDDTAVYFCGAEYNSEYDYWGQGTQVTVSS | high polyreactivity
43 | QVQLVESGGGLVQAGGSLRLSCAASGITFGSYAMGWYRQAPGKERELVAAISRSGGSTYYADSVKGRFTISRDNEKNTVYLQMNSLKPEDTAVYYCAVRYVYYREGDYWGQGTQVTVSS | high polyreactivity

From the nanobody polyreactivity screen of Harvey et al. (2022)
